T1: Human nectin-4 ECD-6His (TNT-175) (human, UniProt Q96NY8 32-349)
T1 construct: the entry holds the extracellular domain with the C-terminal 6His tag
T1 sequence: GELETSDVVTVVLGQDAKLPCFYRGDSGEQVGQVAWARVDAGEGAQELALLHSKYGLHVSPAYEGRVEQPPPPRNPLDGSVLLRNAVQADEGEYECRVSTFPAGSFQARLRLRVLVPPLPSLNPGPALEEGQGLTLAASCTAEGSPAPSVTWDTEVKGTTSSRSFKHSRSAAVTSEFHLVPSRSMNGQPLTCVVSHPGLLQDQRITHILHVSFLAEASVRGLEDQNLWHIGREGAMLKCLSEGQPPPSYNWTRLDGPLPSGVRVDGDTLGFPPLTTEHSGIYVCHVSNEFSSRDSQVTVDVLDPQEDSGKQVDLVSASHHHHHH

T2: human nectin-4 on cells (human, UniProt Q96NY8 32-510)
T2 construct: whole, on cells; also called PVRL4
T2 sequence (looked up): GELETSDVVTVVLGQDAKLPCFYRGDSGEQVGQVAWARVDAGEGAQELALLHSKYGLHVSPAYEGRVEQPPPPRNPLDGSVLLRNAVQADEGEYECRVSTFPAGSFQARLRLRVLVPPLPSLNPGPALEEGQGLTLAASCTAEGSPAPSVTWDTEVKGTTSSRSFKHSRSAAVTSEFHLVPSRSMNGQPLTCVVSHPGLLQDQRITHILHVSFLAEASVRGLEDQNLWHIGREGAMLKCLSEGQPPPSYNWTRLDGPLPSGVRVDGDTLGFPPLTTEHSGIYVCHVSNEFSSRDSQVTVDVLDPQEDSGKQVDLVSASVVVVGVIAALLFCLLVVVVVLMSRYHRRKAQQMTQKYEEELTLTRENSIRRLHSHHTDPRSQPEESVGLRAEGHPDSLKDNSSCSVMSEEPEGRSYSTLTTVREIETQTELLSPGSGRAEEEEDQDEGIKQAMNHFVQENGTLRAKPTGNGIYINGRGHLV


Columns and labels:
[1] = target: T1, Human nectin-4 ECD-6His (TNT-175); assay: SPR ProteOn, mAb on protein A
Experimental: Initial testing of binding of nectin-4 antibodies to nectin-4. […] Biotinylated protein A (15 μg/mL) was immobilized to the surface of an NLC chip. 30 nM of purified mAb supernatant was diluted in PBS-T and captured over the protein A surface. Serial dilutions of human nectin-4 were injected over the mAb-coated chips, and binding kinetics were determined. Chips were regenerated using 4:1 v/v of IgG elution butter/4M NaCl.

human nectin-4 on cells = target: T2, human nectin-4 on cells; assay: flow cytometry MFI, MNK74 (nectin-4 positive) over AGS (negative)
Experimental: Cell binding of nectin-4 antibodies. Cell binding of the nectin-4 antibodies was also assessed. MNK74 (nectin-4 positive) and AGS (nectin-4 negative) cells were obtained from ATCC and cultured according to their protocols. Cells were detached with TrypLE (Gibco) and washed by centrifugation for five minutes at 400×g with FACS buffer (PBS+2% FBS). Cells were resuspended in FACS buffer, plated in 96-well format (0.25 e6/well) then pelleted by centrifugation for five minutes at 400×g. Cells were stained at 4° C. in Fixable Viability Dye eFluor 506 (eBioscience) diluted 1:4,000 in PBS. […] Cells were centrifuged, washed once in FACS buffer and stained at 4° C. with Goat F(ab′)₂ anti-Mouse IgG APC (Southern Biotech) diluted 1:400 in FACS buffer for 30 minutes or appropriate anti-human IgG. Cells were centrifuged, washed twice and fixed in 0.5% paraformaldehyde. Cells were analyzed on Attune NxT Flow Cytometer (Thermo Fisher), with subsequent data analysis by Flowjo 10.7 (BD). Dead cells were excluded by gating on the eFluor 506-negative population. […] Binding was assessed by median fluorescent intensity.

[2] = target: T1, Human nectin-4 ECD-6His (TNT-175); assay: competition ELISA; nectin-4 ECD premixed with TNT201, captured by the coat antibody; % of signal without premix antibody
Experimental: (§1) Competition experiments of nectin-4 antibodies. ELISA plates were coated overnight at 4° C. with goat anti-mouse IgG at […] in PBS. […] As positive control, nectin-4 was diluted at same concentrations without a premix antibody. Two wells per plate were allocated for diluent only as negative/background control. Plates were washed as previously, 50 μL/well of premix was added to each plate and incubated for one hour. Plates were washed then incubated at room temperature for one hour with Rabbit anti 6× HIS HRP diluted 1:4,000 in diluent. Plates were washed once more and incubated at room temperature for 20 minutes with 50 μL/well of ABTS substrate. […] Binding was measured as an Optical Density (O.D.) value normalized to background and calculated as a percentage of positive control at the lowest nectin-4 dilution for greatest resolution.

[3] = target: T1, Human nectin-4 ECD-6His (TNT-175); assay: competition ELISA; nectin-4 ECD premixed with TNT202, captured by the coat antibody; % of signal without premix antibody
Experimental: as §1

[4] = target: T1, Human nectin-4 ECD-6His (TNT-175); assay: competition ELISA; nectin-4 ECD premixed with TNT203, captured by the coat antibody; % of signal without premix antibody
Experimental: as §1

[5] = target: T1, Human nectin-4 ECD-6His (TNT-175); assay: competition ELISA; nectin-4 ECD premixed with TNT204, captured by the coat antibody; % of signal without premix antibody
Experimental: as §1

[6] = target: T1, Human nectin-4 ECD-6His (TNT-175); assay: competition ELISA; nectin-4 ECD premixed with TNT205, captured by the coat antibody; % of signal without premix antibody
Experimental: as §1

[7] = target: T1, Human nectin-4 ECD-6His (TNT-175); assay: competition ELISA; nectin-4 ECD premixed with TNT206, captured by the coat antibody; % of signal without premix antibody
Experimental: as §1

[8] = target: T1, Human nectin-4 ECD-6His (TNT-175); assay: competition ELISA; nectin-4 ECD premixed with TNT207, captured by the coat antibody; % of signal without premix antibody
Experimental: as §1

[9] = target: T1, Human nectin-4 ECD-6His (TNT-175); assay: competition ELISA; nectin-4 ECD premixed with TNT208, captured by the coat antibody; % of signal without premix antibody
Experimental: as §1

[10] = target: T1, Human nectin-4 ECD-6His (TNT-175); assay: competition ELISA; nectin-4 ECD premixed with TNT209, captured by the coat antibody; % of signal without premix antibody
Experimental: as §1

[11] = target: T1, Human nectin-4 ECD-6His (TNT-175); assay: competition ELISA; nectin-4 ECD premixed with TNT210, captured by the coat antibody; % of signal without premix antibody
Experimental: as §1

[12] = target: T1, Human nectin-4 ECD-6His (TNT-175); assay: competition ELISA; nectin-4 ECD premixed with TNT211, captured by the coat antibody; % of signal without premix antibody
Experimental: as §1

[13] = target: T1, Human nectin-4 ECD-6His (TNT-175); assay: competition ELISA; nectin-4 ECD premixed with TNT212, captured by the coat antibody; % of signal without premix antibody
Experimental: as §1

Kd [1] [nM] | koff [1] [s⁻¹] | kon [1] [M⁻¹ s⁻¹] | Fold-change of binding to MNK74 compared to control AGS (human nectin-4 on cells) [fold] | % of Positive [2] [%] | % of Positive [3] [%] | % of Positive [4] [%] | % of Positive [5] [%] | % of Positive [6] [%] | % of Positive [7] [%] | % of Positive [8] [%] | % of Positive [9] [%] | % of Positive [10] [%] | % of Positive [11] [%] | % of Positive [12] [%] | % of Positive [13] [%] | Binder
15.2 | 0.0245 | 1.62e+06 | 6 | 0.9 | 2.8 | 18.3 | 2.6 | 35.9 | 5.5 | 1.3 | 2 | 17.8 | 1.5 | 13.8 | 1.8 | TNT-196 (antibody, mouse IgG2a, kappa) heavy: EVQLVESGGGLVQPGGSLRLSCAASGFTFSDYYMSWIRQAPGKGLEWVSGISWNSGSIGYADSVKGRFTISRDNSKNTLYLQMNSLRAEDTAVYYCASSGSWYLPLDYWGQGTLVTVSSAKTTAPSVYPLAPVCGDTTGSSVTLGCLVKGYFPEPVTLTWNSGSLSSGVHTFPAVLQSDLYTLSSSVTVTSSTWPSQSITCNVAHPASSTKVDKKIEPRGPTIKPCPPCKCPAPNLLGGPSVFIFPPKIKDVLMISLSPIVTCVVVDVSEDDPDVQISWFVNNVEVHTAQTQTHREDYNSTLRVVSALPIQHQDWMSGKEFKCKVNNKDLPAPIERTISKPKGSVRAPQVYVLPPPEEEMTKKQVTLTCMVTDFMPEDIYVEWTNNGKTELNYKNTEPVLDSDGSYFMYSKLRVEKKNWVERNSYSCSVVHEGLHNHHTTKSFSRTPGRPQGFGPP light: DIQMTQSPSSLSASVGDRVTITCQASQDISNYLNWYQQKPGKVPKLLIYAASTLQSGVPSRFSGSGSGTDFTLTISSLQPEDFATYYCQQSYSTPLTFGGGTKVEIKRADAAPTVSIFPPSSEQLTSGGASVVCFLNNFYPKDINVKWKIDGSERQNGVLNSWTDQDSKDSTYSMSSTLTLTKDEYERHNSYTCEATHKTSTSPIVKSFNRNEC
31.4 | 0.00831 | 265000 | 5.1 | 1.2 | 0.8 | 3.5 | 0.7 | 13.5 | 0.5 | 0.3 | 0.3 | 3.4 | 0.3 | 2.4 | 1.5 | TNT-190 (antibody, mouse IgG2a, kappa) heavy: EVQLVQSGGGLVKPGGSLRLSCAASGFTFSDYYMSWVRQAPGKGLEWVSAISGSGGSTYYADSVKGRFTISRDNSKNTLYLQMNSLRAEDTAVYYCARDEGYYYMDVWGKGTTVTVSSAKTTAPSVYPLAPVCGDTTGSSVTLGCLVKGYFPEPVTLTWNSGSLSSGVHTFPAVLQSDLYTLSSSVTVTSSTWPSQSITCNVAHPASSTKVDKKIEPRGPTIKPCPPCKCPAPNLLGGPSVFIFPPKIKDVLMISLSPIVTCVVVDVSEDDPDVQISWFVNNVEVHTAQTQTHREDYNSTLRVVSALPIQHQDWMSGKEFKCKVNNKDLPAPIERTISKPKGSVRAPQVYVLPPPEEEMTKKQVTLTCMVTDFMPEDIYVEWTNNGKTELNYKNTEPVLDSDGSYFMYSKLRVEKKNWVERNSYSCSVVHEGLHNHHTTKSFSRTPGRPQGFGPP light: EIVLTQSPATLSLSPGERATLSCRASQSVSSYLAWYQQKPGQAPRLLIYDASNRATGIPARFSGSGSGTDFTLTISSLQAEDFATYYCQQSYSTRFGGGTKVEIKRADAAPTVSIFPPSSEQLTSGGASVVCFLNNFYPKDINVKWKIDGSERQNGVLNSWTDQDSKDSTYSMSSTLTLTKDEYERHNSYTCEATHKTSTSPIVKSFNRNEC
3.8 | 0.00399 | 1.05e+06 | 7.4 | 2.8 | 3.6 | 28.8 | 4.2 | 50 | 7.7 | 2.2 | 3.5 | 26.2 | 4 | 22.2 | 5.6 | TNT-153 (antibody, mouse IgG2a, kappa) heavy: EVQLVESGGGLVQPGGSLRLSCAASGFTFSSYNMNWVRQAPGKGLEWVSYISSSSSTIYYADSVKGRFTISRDNAKNSLSLQMNSLRDEDTAVYYCARAYYYGMDVWGQGTTVTVSSAKTTAPSVYPLAPVCGDTTGSSVTLGCLVKGYFPEPVTLTWNSGSLSSGVHTFPAVLQSDLYTLSSSVTVTSSTWPSQSITCNVAHPASSTKVDKKIEPRGPTIKPCPPCKCPAPNLLGGPSVFIFPPKIKDVLMISLSPIVTCVVVDVSEDDPDVQISWFVNNVEVHTAQTQTHREDYNSTLRVVSALPIQHQDWMSGKEFKCKVNNKDLPAPIERTISKPKGSVRAPQVYVLPPPEEEMTKKQVTLTCMVTDFMPEDIYVEWTNNGKTELNYKNTEPVLDSDGSYFMYSKLRVEKKNWVERNSYSCSVVHEGLHNHHTTKSFSRTPGLLQGG light: DIQMTQSPSSVSASVGDRVTITCRASQGISGWLAWYQQKPGKAPKFLIYAASTLQSGVPSRFSGSGSGTDFTLTISSLQPEDFATYYCQQANSFPPTFGGGTKVEIKRADAAPTVSIFPPSSEQLTSGGASVVCFLNNFYPKDINVKWKIDGSERQNGVLNSWTDQDSKDSTYSMSSTLTLTKDEYERHNSYTCEATHKTSTSPIVKSFNRNEC

Source: US20240382610A1 (TALLAC THERAPEUTICS, published 2024)
